Measurements as given in the RNAGym collection of RNA variant scans (doi:10.7554/elife.80360).

B1: CPEB3 Ribozyme (parent)
chain: GGGGGCCACAGCAGAAGCGUUCACGUCGCGGCCCCUGUCAGAUUCUGGUGAAUCUGCGAAUUCUGCUGU

Variants of: B1
Experiment: self-cleavage, relative activity (ratio to wild type); higher = more cleavage; co-transcriptional

**Q.** With GGGGGCCACAGCAGACGCGUUCACGUCGCGGCCCCUGUCAGAUUCUGGUGAAGCUGCGAAUUCUGCUGU as the variant, how does the self-cleavage read?
**A.** The self-cleavage was 0.251.

**Q.** With GGGGGCCACAGCAGAGGCGUUCACGUCGCGGUCCCUGUCAGAUUCUGGUGAAUCUGCGAAUUCUGCUGU as the variant, how does the self-cleavage read?
**A.** The self-cleavage was 0.941.

**Q.** For GGGGGCCACAGCAGAGGCGUUCACGUCGCGUCCCCUGUCAGAUUCUGGUGAAUCUGCGAAUUCUGCUGU, which self-cleavage is on record?
**A.** Its self-cleavage is 0.309.

**Q.** Which self-cleavage does the source give for GGGGGCCACAGCAGAGGCGUUCACGUCGCGCCCCCUGUCAGAUUCUGGUGAAUCUGCGAAUUCUGCUGU here?
**A.** Its self-cleavage is 0.147.

**Q.** With GGGGGCCACAGCAGAGGCGUUCACGUCGCGACCCCUGUCAGAUUCUGGUGAAUCUGCGAAUUCUGCUGU as the variant, how does the self-cleavage read?
**A.** Its self-cleavage is 0.527.

**Q.** For GGGGGCCACAGCAGACGCGUUCACGUCGCGGCCCCUGUCAGAUUCUGGUGAAUCUGCGAAUUCUGCUGG, which self-cleavage is on record?
**A.** Its self-cleavage is 0.588.

**Q.** For GGGGGCCACAGCAGACGCGUUCACGUCGCGGCCCCUGUCAGAUUCUGGUGAAUCUGCGAAUUCUGCUGA, which self-cleavage is on record?
**A.** Its self-cleavage is 0.451.

**Q.** Which self-cleavage does the source give for GGGGGCCACAGCAGAGGCGUUCACGUCGCGGCCCCUUUCAGAUUCUGGUGAAUCUGCGAAUUCUGCUGU here?
**A.** Its self-cleavage is 0.216.

**Q.** For GGGGGCCACAGCAGAGGCGUUCACGUCGCGGCCCCUCUCAGAUUCUGGUGAAUCUGCGAAUUCUGCUGU, which self-cleavage is on record?
**A.** The self-cleavage was 0.146.

**Q.** With GGGGGCCACAGCAGAGGCGUUCACGUCGCGGCCGCUGUCAGAUUCUGGUGAAUCUGCGAAUUCUGCUGU as the variant, how does the self-cleavage read?
**A.** Its self-cleavage is 0.576.

**Q.** With GGGGGCCACAGCAGAGGCGUUCACGUCGCGGCCUCUGUCAGAUUCUGGUGAAUCUGCGAAUUCUGCUGU as the variant, how does the self-cleavage read?
**A.** Its self-cleavage is 0.845.

**Q.** For GGGGGCCACAGCAGAGGCGUUCACGUCGCGGCCACUGUCAGAUUCUGGUGAAUCUGCGAAUUCUGCUGU, which self-cleavage is on record?
**A.** Its self-cleavage is 0.583.

**Q.** Which self-cleavage does the source give for GGGGGCCACAGCAGACGCGUUCACGUCGCGGCCCCUGUCAGAUUCUGGUGAAUCUGCGAAUUCUGCGGU here?
**A.** The self-cleavage was 0.257.

**Q.** Which self-cleavage does the source give for GGGGGCCACAGCAGACGCGUUCACGUCGCGGCCCCUGUCAGAUUCUGGUGAAUCUGCGAAUUCUGCAGU here?
**A.** The self-cleavage was 0.331.

**Q.** Which self-cleavage does the source give for GGGGGCCACAGCAGAGUCGUUCACGUCGCGGCCCCUGUCAGAUUCUGGUGAAUCUGCGAAUUCUGCUGU here?
**A.** Its self-cleavage is 0.559.

**Q.** Which self-cleavage does the source give for GGGGGCCACAGCAGAGACGUUCACGUCGCGGCCCCUGUCAGAUUCUGGUGAAUCUGCGAAUUCUGCUGU here?
**A.** Its self-cleavage is 0.0854.

**Q.** Which self-cleavage does the source give for GGGGGCCACAGCAGAGGCGUUCACGUCGCGGCCCCUGUCAUAUUCUGGUGAAUCUGCGAAUUCUGCUGU here?
**A.** The self-cleavage was 0.472.

**Q.** For GGGGGCCACAGCAGAGGCGUUCACGUCGCGGCCCCUGUCACAUUCUGGUGAAUCUGCGAAUUCUGCUGU, which self-cleavage is on record?
**A.** Its self-cleavage is 0.41.

**Q.** For GGGGGCCACAGCAGAGGCGUUCACGUCGCGGCCCCUGUCAGAUUCUGGUGAAUCUGCGAAUUCUGCUUU, which self-cleavage is on record?
**A.** The self-cleavage was 0.956.

**Q.** With GGGGGCCACAGCAGAGGCGUUCACGUCGCGGCCCCUGUCAGAUUCUGGUGAAUCUGCGAAUUCUGCUCU as the variant, how does the self-cleavage read?
**A.** The self-cleavage was 0.981.

**Q.** Which self-cleavage does the source give for GGGGGCCACAGCAGAGGCGUUCACGUCGCGGCCCCUGUCAGAUUCUGCUGAAUCUGCGAAUUCUGCUGU here?
**A.** The self-cleavage was 0.892.

**Q.** With GGGGGCCACAGCAGAGGCGUUCACGUCGCGGCCCCUGUCAGAUUCUGAUGAAUCUGCGAAUUCUGCUGU as the variant, how does the self-cleavage read?
**A.** The self-cleavage was 0.964.

**Q.** For GGGGGCCACAGCAGAGGCGUUCACGUCGCGGCCCCUGUCAGAUUCUGUUGAAUCUGCGAAUUCUGCUGU, which self-cleavage is on record?
**A.** The self-cleavage was 0.974.

**Q.** For GGGGGCCACAGCAGAGGCGUUCACGUCGUGGCCCCUGUCAGAUUCUGGUGAAUCUGCGAAUUCUGCUGU, which self-cleavage is on record?
**A.** The self-cleavage was 0.111.

**Q.** Which self-cleavage does the source give for GGGGGCCACAGCAGAGGCGUUCACGUCGAGGCCCCUGUCAGAUUCUGGUGAAUCUGCGAAUUCUGCUGU here?
**A.** The self-cleavage was 0.224.

**Q.** For GGGGGCCACAGCAGAGGCGUUCACGUCGCGGCCCCUGUCAGAUUCUGGUGAUUCUGCGAAUUCUGCUGU, which self-cleavage is on record?
**A.** Its self-cleavage is 0.804.

**Q.** For GGGGGCCACAGCAGAGGCGUUCACGUCGCGGCCCCUGUCAGAUUCUGGUGAGUCUGCGAAUUCUGCUGU, which self-cleavage is on record?
**A.** Its self-cleavage is 0.87.

**Q.** Which self-cleavage does the source give for GGGGGCCACAGCAGAGGCGUUCACGUCGCGGCCCCUGUCAGAUUGUGGUGAAUCUGCGAAUUCUGCUGU here?
**A.** The self-cleavage was 0.958.

**Q.** Which self-cleavage does the source give for GGGGGCCACAGCAGAGGCGUUCACGUCGCGGCCCCUGUCAGAUUUUGGUGAAUCUGCGAAUUCUGCUGU here?
**A.** The self-cleavage was 0.884.

**Q.** With GGGGGCCACAGCAGAGGCGUUCACGUCGCGGCCCCUGUCAGAUUAUGGUGAAUCUGCGAAUUCUGCUGU as the variant, how does the self-cleavage read?
**A.** The self-cleavage was 0.811.

**Q.** For GGGGGCCACAGCAGAGGCGUUCACGUCGCGGCCCCUGUCAGAUUCUGGUGAAUCUGCGAAUUCUGUUGU, which self-cleavage is on record?
**A.** Its self-cleavage is 0.89.

**Q.** With GGGGGCCACAGCAGAGGCGUUCACGUCGCGGCCCCUGUCAGAUUCUGGUGAAUCUGCGAAUUCUGGUGU as the variant, how does the self-cleavage read?
**A.** Its self-cleavage is 0.646.

**Q.** Which self-cleavage does the source give for GGGGGCCACAGCAGAGGCGUUCACGUCGCGGCCCCUGUCAGAUUCUGGUGAAUCUGCGAAUUCUCCUGU here?
**A.** Its self-cleavage is 0.446.

**Q.** For GGGGGCCACAGCAGAGGCGUUCACGUCGCCGCCCCUGUCAGAUUCUGGUGAAUCUGCGAAUUCUGCUGU, which self-cleavage is on record?
**A.** Its self-cleavage is 0.105.

**Q.** For GGGGGCCACAGCAGAGGCGUUCACGUCGCAGCCCCUGUCAGAUUCUGGUGAAUCUGCGAAUUCUGCUGU, which self-cleavage is on record?
**A.** Its self-cleavage is 0.612.

**Q.** Which self-cleavage does the source give for GGGGGCCACAGCAGAGGCGUUCACGUCGCUGCCCCUGUCAGAUUCUGGUGAAUCUGCGAAUUCUGCUGU here?
**A.** Its self-cleavage is 0.201.

**Q.** For GGGGGCCACAGCAGAGGCGUUCACGUCGCGGCUCCUGUCAGAUUCUGGUGAAUCUGCGAAUUCUGCUGU, which self-cleavage is on record?
**A.** Its self-cleavage is 0.946.

**Q.** Which self-cleavage does the source give for GGGGGCCACAGCAGAGGCGUUCACGUCGCGGCGCCUGUCAGAUUCUGGUGAAUCUGCGAAUUCUGCUGU here?
**A.** Its self-cleavage is 0.29.

**Q.** Which self-cleavage does the source give for GGGGGCCACAGCAGAGGCGUUCACGUCGCGGCCCCUGUCAGAUUCUUGUGAAUCUGCGAAUUCUGCUGU here?
**A.** The self-cleavage was 0.998.
